One assay addresses T1, GST-CEACAM1 (human, UniProt P13688 35-141, limits assumed).
T1 construct: also called human CEACAM1-GST protein
T1 sequence: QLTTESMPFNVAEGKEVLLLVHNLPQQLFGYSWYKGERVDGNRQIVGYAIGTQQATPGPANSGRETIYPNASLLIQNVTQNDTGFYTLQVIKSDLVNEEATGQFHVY
The assay is described as follows: competition ELISA: binding of human CEACAM1-GST (37.5 µg/ml) to human TIM-3 IgV domain tagless protein (3 µg/ml), anti-GST detection, OD 450 nm. On the procedure:
The ability of the CEACAM1 antibodies to reduce the binding of CEACAM1 to TIM-3 was examined. […] In addition, human IgG4 antibody was used as a control (0-1000 nM). Goat polyclonal anti-GST-HSP antibody from Abcam (1:2000) was used and assays were developed by addition of TMB solution (Life technologies). OD values were read at 450 nm on a plate reader. Data was plotted in a Graphpad and best-fit IC-50 values were determined.

Another assay has as its target T2, His-tagged CEACAM1 (human, UniProt P13688 35-428).
T2 construct: 45 kDa SPR analyte; also called CEACAM1-HIS; CEACAM1 analyte
T2 sequence: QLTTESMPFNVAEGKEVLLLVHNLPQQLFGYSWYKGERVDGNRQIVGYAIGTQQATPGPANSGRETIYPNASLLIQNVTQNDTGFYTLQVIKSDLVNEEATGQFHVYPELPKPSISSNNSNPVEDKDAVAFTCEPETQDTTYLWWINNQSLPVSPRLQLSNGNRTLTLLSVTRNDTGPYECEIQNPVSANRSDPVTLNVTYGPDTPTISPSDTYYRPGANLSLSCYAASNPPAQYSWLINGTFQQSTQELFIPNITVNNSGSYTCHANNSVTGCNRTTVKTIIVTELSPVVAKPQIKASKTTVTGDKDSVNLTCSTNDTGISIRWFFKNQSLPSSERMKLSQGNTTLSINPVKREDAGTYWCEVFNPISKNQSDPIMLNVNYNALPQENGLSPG
The assay is described as follows: SPR single-cycle, IgG captured. The method in brief:
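Biacore T200 single-cycle kinetics at 25° C in HBS-P+ (pH 7.4): antibodies (purified or HEK EBNA supernatant, 1 μg/ml) captured on Protein A to ~75 RU, His-tagged CEACAM1 analyte at 3.125–50 nM (5-point 2-fold) at 50 μl/min without regeneration. Reference channel Fc1 subtracted.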

For assay [1], the target named is T3, CEACAM5 on transfected HeLa cells (human, UniProt P06731 35-685).
T3 construct: whole, on cells; also called HeLa-CEACAM5; HeLa C5
T3 sequence (looked up): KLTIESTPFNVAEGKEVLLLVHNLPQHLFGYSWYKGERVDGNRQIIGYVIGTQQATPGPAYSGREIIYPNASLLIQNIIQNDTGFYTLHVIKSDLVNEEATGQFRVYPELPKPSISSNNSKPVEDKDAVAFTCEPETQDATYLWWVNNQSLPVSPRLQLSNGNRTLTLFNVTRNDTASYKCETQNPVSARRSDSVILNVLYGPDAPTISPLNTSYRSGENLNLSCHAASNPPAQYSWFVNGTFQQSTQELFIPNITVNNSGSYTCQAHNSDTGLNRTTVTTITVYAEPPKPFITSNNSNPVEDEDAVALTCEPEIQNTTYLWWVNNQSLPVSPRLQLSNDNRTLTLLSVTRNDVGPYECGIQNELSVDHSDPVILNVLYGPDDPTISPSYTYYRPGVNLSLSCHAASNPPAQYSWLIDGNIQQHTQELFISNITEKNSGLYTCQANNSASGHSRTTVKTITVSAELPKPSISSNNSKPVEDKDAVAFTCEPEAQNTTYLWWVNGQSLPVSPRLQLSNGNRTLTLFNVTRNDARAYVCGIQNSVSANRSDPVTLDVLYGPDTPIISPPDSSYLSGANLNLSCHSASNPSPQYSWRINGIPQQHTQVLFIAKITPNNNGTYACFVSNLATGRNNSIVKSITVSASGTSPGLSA
The assay is described as follows: flow cytometry, transfected HeLa. For orientation: A flow cytometer gives signals particle by particle.

For orientation: IC50 means the point on the concentration scale where inhibition reaches its midpoint. High values mean lower potency, low ones higher potency. A word on the Kd: it is the equilibrium constant for the complex coming apart.

B1: CP08H03/Vκ8 S29A (antibody, IgG4, V domains shown)
VH: EVQLLESGGGLVQPGGSLRLSCAASGFIFSSHGMSWVRQAPGKGLEWVATISSGGTYTYYPDSVKGRFTISRDNSKNTLYLQMNSLKAEDTAMYYCARHDFDYFPYWFAHWGQGTLVTVSS
VL: EIVLTQSPATLSLSPGERATLSCRANSAVSYMYWYQQKPGQAPRPWIYLTSNRATGVPARFSGSGSGTDYTLTISSLEPEDFAVYYCQQWSSNPPTFGQGTKLEIK
notes: IgG4 (S241P), kappa; also called CP08_H03/Parent VL; CP08_H03/Parental
Molecule B1 yielded an IC50 with GST-CEACAM1 of 31.9 nM.

B2: chimeric antibody VH0/Vκ0 (antibody, IgG4, V domains shown)
VH: EVQLVESGGDLVKPGGSLKLACAASGFIFSSHGMSWVRQTPDKRLEWVATISSGGTYTYYPDSVKGRFTISRDNDKNTLYLQMNSLKSEDTAMYYCARHDFDYDAAWFAYWGQGTLVTVSS
VL: QIVLTQSPALMSASPGVKVTMTCSANSSVSYMYWYRQKPRSSPKPWIYLTSNLASGVPARFSGSGSGTSYSLTISSMEAEDAATYYCQQWSSNPPTFGSGTKLEIK
notes: IgG4 (S241P), kappa; also called VH0/Vκ0 (control); Chimeric VH0/Vκ0
Consider B2, for which, in the assay with His-tagged CEACAM1, the dissociation constant Kd came to 42 nM and the “relative KD to VH0/Vκ0” value stood at 1. The “relative amount of cells bound” value in assay [1] is 8.81.

The values above are taken from patent publication US20250074980A1 (BRIGHAM AND WOMEN S HOSPITAL, published 2025).
